According to paper PMC8372624:

Molecular target: fluorescently labeled non-covalent analog of peptide 5 with a non-nucleophilic acetate group on position 133 (UniProt P46937)
Test: fluorescence polarisation

Chain of UniProt P46937 (P46937 whole entry, looked up, tested part not stated): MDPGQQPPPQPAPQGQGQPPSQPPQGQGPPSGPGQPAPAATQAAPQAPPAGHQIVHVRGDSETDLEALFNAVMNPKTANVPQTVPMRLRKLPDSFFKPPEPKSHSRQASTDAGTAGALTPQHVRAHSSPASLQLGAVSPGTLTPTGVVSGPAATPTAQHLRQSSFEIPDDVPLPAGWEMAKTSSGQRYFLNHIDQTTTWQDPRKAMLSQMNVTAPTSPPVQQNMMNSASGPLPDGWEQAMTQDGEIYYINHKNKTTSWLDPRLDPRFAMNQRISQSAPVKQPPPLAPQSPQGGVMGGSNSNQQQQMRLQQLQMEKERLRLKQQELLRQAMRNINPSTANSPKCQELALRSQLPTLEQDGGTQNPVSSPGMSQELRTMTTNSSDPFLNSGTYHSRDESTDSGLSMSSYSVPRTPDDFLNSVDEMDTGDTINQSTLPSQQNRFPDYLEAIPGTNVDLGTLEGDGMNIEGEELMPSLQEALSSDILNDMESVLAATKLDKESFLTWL

Kd: 106 nM
B1: recombinant full-length 14-3-3σ (1–248) (natural protein)
chain: MERASLIQKAKLAEQAERYEDMAAFMKGAVEKGEELSCEERNLLSVAYKNVVGGQRAAWRVLSSIEQKSNEEGSEEKGPEVREYREKVETELQGVCDTVLGLLDSHLIKEAGDAESRVFYLKMKGDYYRYLAEVATGDDKKRIIDSARSAYQEAMDISKKEMPPTNPIRLGLALNFSVFHYEIANSPEEAISLAKTTFDEAMADLHTLSEDSYKDSTLIMQLLRDNLTLWTADNAGEEGGEAPQEPQS
